Source: patent US20210024620A1

Columns and labels:
[1] = target: rat FcRn (rat) (UniProt P13599); test: Octet BLI, pH 6.0
[2] = target: rat FcRn (rat) (UniProt P13599); test: Biacore SPR, pH 6.0
[3] = target: FcRn immobilised on the FcRn affinity column (biotinylated cynoFcRn in one experiment, biotinylated hFcRn in another); test: FcRn affinity chromatography, linear pH gradient; species of the immobilised FcRn not given
[4] = target: rat FcRn (rat) (UniProt P13599); test: Biacore, pH 6.0, apparent KD
[5] = target: Human CD16a (FcγRIIIa V158) with C-terminal HPC4 tag (human) (UniProt P08637); test: Biacore, FcγRIIIa V158 captured, steady-state fit, apparent KD
Human CD16a (FcγRIIIa V158) with C-terminal HPC4 tag (human), sequence (P08637 17-208 F176V): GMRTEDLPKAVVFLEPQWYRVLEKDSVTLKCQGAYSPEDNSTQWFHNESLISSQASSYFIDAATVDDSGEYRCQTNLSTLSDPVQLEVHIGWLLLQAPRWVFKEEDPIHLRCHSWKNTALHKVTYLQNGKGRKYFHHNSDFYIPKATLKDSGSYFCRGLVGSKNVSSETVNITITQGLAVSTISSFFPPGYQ

[6] = target: rat FcRn (rat) (UniProt P13599); test: Biacore SPR, pH 7.4, 1000 nM antibody
[7] = target: rat FcRn (rat) (UniProt P13599); test: Biacore, pH 7.4, steady state response
[8] = target: rat FcRn (rat) (UniProt P13599); test: Biacore, pH 6.0
[9] = target: Human CD16a (FcγRIIIa residues 17-208 with C-terminal HPC4 tag and valine at position 158) (human) (UniProt P08637); test: Biacore SPR, HPC4-tagged FcγRIIIa-V158 captured by anti-HPC4, pH 7.4
Human CD16a (FcγRIIIa residues 17-208 with C-terminal HPC4 tag and valine at position 158) (human), sequence (P08637 17-208 F176V): as above

[10] = target: Human CD16a (FcγRIIIa V158) with C-terminal HPC4 tag (human) (UniProt P08637); test: Biacore, FcγRIIIa V158 captured, relative to WT of the same backbone
[11] = target: biotinylated human FcRn (human) (UniProt P55899); test: Biacore, pH 7.4, steady state response
biotinylated human FcRn (human), sequence (P55899 24-297 limits assumed, chain 1 of 2): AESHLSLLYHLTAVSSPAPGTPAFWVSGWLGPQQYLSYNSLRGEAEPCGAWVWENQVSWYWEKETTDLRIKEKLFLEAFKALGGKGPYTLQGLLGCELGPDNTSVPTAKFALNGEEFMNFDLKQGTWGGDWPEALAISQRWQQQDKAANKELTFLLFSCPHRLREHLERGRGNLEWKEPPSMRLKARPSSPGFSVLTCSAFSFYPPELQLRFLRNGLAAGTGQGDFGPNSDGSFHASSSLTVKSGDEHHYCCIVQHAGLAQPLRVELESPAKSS
biotinylated human FcRn (human), sequence (P61769 21-119 limits assumed, chain 2 of 2, further chain): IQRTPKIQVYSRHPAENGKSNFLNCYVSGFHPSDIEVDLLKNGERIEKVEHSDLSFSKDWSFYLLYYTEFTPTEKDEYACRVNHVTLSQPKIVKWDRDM

[12] = target: mouse FcRn (mouse) (UniProt Q61559); test: Biacore, pH 7.4, steady state response
mouse FcRn (mouse), sequence (Q61559 22-297 limits assumed, chain 1 of 2): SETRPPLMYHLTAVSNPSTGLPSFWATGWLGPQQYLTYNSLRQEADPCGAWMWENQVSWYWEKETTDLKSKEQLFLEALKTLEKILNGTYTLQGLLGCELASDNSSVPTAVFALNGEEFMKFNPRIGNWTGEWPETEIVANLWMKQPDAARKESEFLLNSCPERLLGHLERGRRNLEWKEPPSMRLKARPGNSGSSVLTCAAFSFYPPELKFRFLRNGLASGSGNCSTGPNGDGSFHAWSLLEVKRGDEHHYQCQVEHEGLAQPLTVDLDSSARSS
mouse FcRn (mouse), sequence (P01887 21-119 limits assumed, chain 2 of 2, further chain): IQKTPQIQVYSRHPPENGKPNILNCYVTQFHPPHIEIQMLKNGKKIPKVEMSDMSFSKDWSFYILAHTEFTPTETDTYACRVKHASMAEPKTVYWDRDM

[13] = target: biotinylated cynomolgus FcRn (cynomolgus) (UniProt Q8SPV9); test: Biacore, pH 7.4, steady state response
[14] = target: biotinylated human FcRn (human) (UniProt P55899); test: Biacore SPR, pH 6.0
[15] = target: biotinylated human FcRn (p51 subunit residues 24-297 with C-terminal Avi-tag; beta2-microglobulin residues 21-119) (human) (UniProt P55899); test: Biacore SPR, pH 6.0
biotinylated human FcRn (p51 subunit residues 24-297 with C-terminal Avi-tag; beta2-microglobulin residues 21-119) (human), sequence (P55899 24-297 limits assumed, chain 1 of 2): as the sequence (P55899 24-297 limits assumed, chain 1 of 2) above
biotinylated human FcRn (p51 subunit residues 24-297 with C-terminal Avi-tag; beta2-microglobulin residues 21-119) (human), sequence (P61769 21-119 limits assumed, chain 2 of 2, further chain): as the sequence (P61769 21-119 limits assumed, chain 2 of 2, further chain) above

[16] = target: biotinylated human FcRn (human) (UniProt P55899); test: Biacore, pH 6.0, apparent KD
[17] = target: biotinylated human FcRn (human) (UniProt P55899); test: Biacore SPR, pH 7.4
[18] = target: biotinylated human FcRn (human) (UniProt P55899); test: Biacore SPR, pH 7.4, 1000 nM antibody
[19] = target: biotinylated human FcRn (p51 subunit residues 24-297 with C-terminal Avi-tag; beta2-microglobulin residues 21-119) (human) (UniProt P55899); test: Biacore; inverse ratio (RU at pH 7.4 over affinity at pH 6.0)
[20] = target: biotinylated human FcRn (p51 subunit residues 24-297 with C-terminal Avi-tag; beta2-microglobulin residues 21-119) (human) (UniProt P55899); test: Biacore; affinity at pH 6.0 (M^-1) over steady state RU at pH 7.4
[21] = target: biotinylated human FcRn (p51 subunit residues 24-297 with C-terminal Avi-tag; beta2-microglobulin residues 21-119) (human) (UniProt P55899); test: Biacore SPR, pH 7.4, steady state
[22] = target: biotinylated human FcRn (human) (UniProt P55899); test: Biacore, pH 6.0
[23] = target: biotinylated human FcRn (human) (UniProt P55899); test: Biacore, biotin-captured hFcRn, pH 6.0
[24] = target: biotinylated human FcRn (human) (UniProt P55899); test: Biacore, biotin-captured hFcRn, pH 8.0, 1000 nM antibody
[25] = target: biotinylated human FcRn (human) (UniProt P55899); test: Biacore, biotin-captured hFcRn, pH 7.4
[26] = target: biotinylated cynomolgus FcRn (cynomolgus) (UniProt Q8SPV9); test: Biacore, biotin-captured cFcRn, pH 8.0, 1000 nM antibody
[27] = target: biotinylated cynomolgus FcRn (cynomolgus) (UniProt Q8SPV9); test: Biacore, biotin-captured cFcRn, pH 6.0
[28] = target: biotinylated cynomolgus FcRn (cynomolgus) (UniProt Q8SPV9); test: Biacore, biotin-captured cFcRn, pH 8.0
[29] = target: biotinylated cynomolgus FcRn (cynomolgus) (UniProt Q8SPV9); test: Biacore, biotin-captured cFcRn, pH 9.0, 1000 nM antibody
[30] = target: biotinylated cynomolgus FcRn (cynomolgus) (UniProt Q8SPV9); test: Biacore, biotin-captured cFcRn, pH 7.4
[31] = target: biotinylated human FcRn (human) (UniProt P55899); test: Biacore, biotin-captured hFcRn, pH 7.4, 1000 nM antibody
[32] = target: biotinylated human FcRn (human) (UniProt P55899); test: Biacore, biotin-captured hFcRn, pH 8.0
[33] = target: biotinylated cynomolgus FcRn (cynomolgus) (UniProt Q8SPV9); test: Biacore, biotin-captured cFcRn, pH 7.4, 1000 nM antibody

rat FcRn (rat), sequence (P13599 23-298 limits assumed, chain 1 of 2): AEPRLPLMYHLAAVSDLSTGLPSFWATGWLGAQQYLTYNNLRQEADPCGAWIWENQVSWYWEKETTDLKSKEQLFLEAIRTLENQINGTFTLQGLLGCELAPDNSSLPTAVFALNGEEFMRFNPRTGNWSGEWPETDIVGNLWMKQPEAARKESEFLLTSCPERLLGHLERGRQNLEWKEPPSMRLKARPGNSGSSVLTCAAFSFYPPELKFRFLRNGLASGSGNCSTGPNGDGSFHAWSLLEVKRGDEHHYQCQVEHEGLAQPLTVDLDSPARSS
rat FcRn (rat), sequence (P07151 21-119 limits assumed, chain 2 of 2, further chain): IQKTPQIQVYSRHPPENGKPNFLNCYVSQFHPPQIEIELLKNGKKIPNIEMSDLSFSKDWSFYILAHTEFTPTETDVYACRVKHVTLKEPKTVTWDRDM

Q: What does the source list for mAb1 AAA (T307A/E380A/N434A) (antibody)?
A: koff [1]: 0.00377 s⁻¹; Kd [2]: 77 nM; koff [2]: 0.0117 s⁻¹; kon [2]: 157000 M⁻¹ s⁻¹; FcRn affinity column elution pH [3]: 7.94 pH; Kd [4]: 77 nM; Kd [5]: 450 nM; Steady State RU [6]: 23.6 RU; Steady State RU [7]: 23.6 RU; koff [8]: 0.0117 s⁻¹; kon [8]: 157000 M⁻¹ s⁻¹

Q: “YTEKF benchmark (M252Y/S254T/T256E/H433K/N434F) hIgG1 (antibody)” was tested. Which FcγRIIIa Binding Steady State RU [9] did it give?
A: 207 RU

Q: Which FcγRIIIa V158 Affinity Fold Change (fold relative to WT) [10] does the source give for mAb2 LS (M428L/N434S) (antibody) here?
A: 1.23

Q: What about the Steady State RU [11] of the same substance?
A: 44 RU

Q: And the Steady State RU [12]?
A: 285 RU

Q: What about the Steady State RU [13] of the same substance?
A: 38 RU

Q: Which FcγRIIIa V158 Affinity Fold Change (fold relative to WT) [10] does the source give for mAb2 YD (M252Y/T256D) (antibody) here?
A: 0.58

Q: What about the Steady State RU [11] of the same substance?
A: 27 RU

Q: And the Steady State RU [12]?
A: 394 RU

Q: What about the Steady State RU [13] of the same substance?
A: 22 RU

Q: Which Kd [14] does the source give for “mAb1 AAA (T307A/E380A/N434A) (antibody; other documents disagree on this pair)” here?
A: 1780 nM

Q: And the koff [14]?
A: 0.144 s⁻¹

Q: What about the kon [14] of the same substance?
A: 83700 M⁻¹ s⁻¹

Q: And the Ka [15]?
A: 562000 M⁻¹

Q: And the Kd [16]?
A: 1780 nM

Q: What about the Steady State RU [17] of the same substance?
A: 13.1 RU

Q: What about the Steady State RU [18] of the same substance?
A: 13.9 RU

Q: What about the Ratio (pH 6.0/pH 7.4) [19] of the same substance?
A: 2.47e-05

Q: What about the Ratio (pH 6.0/pH 7.4) [20] of the same substance?
A: 40400

Q: And the Steady State Binding, pH 7.4 (RU) [21]?
A: 13.9 RU

Q: And the Steady State RU [11]?
A: 13.9 RU

Q: What about the koff [22] of the same substance?
A: 0.14 s⁻¹

Q: What about the kon [22] of the same substance?
A: 84000 M⁻¹ s⁻¹

Q: What does the source list for mAb1 T307E (antibody)?
A: koff [1]: 0.00329 s⁻¹; Kd [2]: 141 nM; koff [2]: 0.00603 s⁻¹; kon [2]: 55500 M⁻¹ s⁻¹; Kd [14]: 8130 nM; koff [14]: 0.298 s⁻¹; kon [14]: 43700 M⁻¹ s⁻¹; FcRn affinity column elution pH [3]: 7.58 pH; Kd [4]: 141 nM; Kd [16]: 8130 nM; Steady State RU [6]: 21.5 RU; Steady State RU [18]: 5.7 RU; koff [8]: 0.006 s⁻¹; kon [8]: 56000 M⁻¹ s⁻¹; koff [22]: 0.3 s⁻¹; kon [22]: 44000 M⁻¹ s⁻¹

Q: With “mAb1 YEWF (M252Y/T256E/T307W/N434F) (antibody)” as the substance, how does the FcγRIIIa Binding Steady State RU [9] read?
A: 163 RU

Q: And the Kd [23]?
A: 13 nM

Q: And the koff [23]?
A: 0.0103 s⁻¹

Q: And the kon [23]?
A: 810000 M⁻¹ s⁻¹

Q: With “mAb1 YDWF (M252Y/T256D/T307W/N434F) (antibody)” as the substance, how does the FcγRIIIa Binding Steady State RU [9] read?
A: 128 RU

Q: What about the Ka [15] of the same substance?
A: 1.66e+08 M⁻¹

Q: And the Steady State RU [24]?
A: 235 RU

Q: What about the Kd [25] of the same substance?
A: 194 nM

Q: What about the Steady State RU [26] of the same substance?
A: 313 RU

Q: And the Kd [27]?
A: 8.6 nM

Q: And the Kd [28]?
A: 680 nM

Q: What about the Steady State Binding, pH 7.4 (RU) [21] of the same substance?
A: 71.8 RU

Q: And the Steady State RU [29]?
A: 4.6 RU

Q: What about the Kd [30] of the same substance?
A: 115 nM

Q: And the Steady State RU [31]?
A: 124 RU

Q: And the Kd [32]?
A: 1300 nM

Q: And the Steady State RU [33]?
A: 173 RU
